Reference: patent publication US20110171222A1 (Hoffmann-La Roche, published 2011)
Residue numbers refer to the chain shown, from its start.

B1: U1-53 (antibody, from another filing, V domains shown)
VH: EVQLVESGGGLVQPGGSLRLSCAASGFTFSIYSMNWVRQAPGKGLEWVSYISSSSSTIYYADSVKGRFTISRDNAKNSLYLQMNSLRDEDTAVYYCARDRGDFDAFDIWGQGTMVTVSS
VL: DIQMTQSPSSLSASVGDRVTITCQASQDITNYLNWYQQKPGKAPKLLIYDASNLETGVPSRFSGSGSGTDFTFTISSLQPEDIATYNCQQCENFPITFGQGTRLEIK
B2: Mab 205.10.1 (antibody, V domains shown)
VH: QVQLVQSGAEVKKPGASVKVSCKASGYTFRSSYISWVRQAPGQGLEWMGWIYAGTGSPSYNQKLQGRVTMTTDTSTSTAYMELRSLRSDDTAVYYCARHRDYYSNSLTYWGQGTLVTVSS
VL: DIVMTQSPDSLAVSLGERATINCKSSQSLLNSGNQKNYLTWYQQKPGQPPKLLIYWASTRESGVPDRFSGSGSGTDFTLTISSLQAEDVAVYYCQSDYSYPYTFGQGTKLEIK
notes: Humanized antibody; Only the variable domains are tied to it; The assays detected it with anti-human IgG or captured it with anti-Fc gamma
B3: Mab 205.10.3 (antibody, human IgG1, V domains shown)
VH: B2 VH
VL: B2 VL with A90S, V91I
notes: Humanized antibody; Only the variable domains are tied to it

Assays:
[1] = biological target: HER3 on MCF7, FaDu and Mel-Juso tumor cells (human) (UniProt P21860); experiment: cell-based or functional assay
[2] = biological target: T1, Soluble human HER3 extracellular domain fused to Streptavidin Binding Protein (SBP) (human, UniProt P21860 20-643); experiment: ELISA, SBP-HER3 ECD captured on streptavidin plate, anti-human IgG-HRP detection
T1 construct: It was used as HEK293 supernatant captured on streptavidin plates; also called SBP-HER3
Method: Soluble human HER3 extracellular domain fused to Streptavidin Binding Protein (SBP) was captured on a streptavidin plate. […] For the standard coating, SBP-HER3 containing HEK293 supernatant was diluted (between 1:15 and 1:40) and incubated overnight at 2-80 C (25 μl per well). Intensive washing of the microtiter plate was necessary to remove remaining unbound SBP-HER3.
Antibodies were tested either undiluted or using a 12-step-dilution. 12.5 μl per well of each sample was incubated for 90 min at room temperature.

[3] = biological target: T1, Soluble human HER3 extracellular domain …; experiment: ratio of the concentration by HER3-ECD ELISA to the concentration by IgG ELISA
human HER3 ECD = biological target: T2, human HER3 ECD (human, UniProt P21860 20-643); experiment: SPR (Biacore T100), antibody captured by anti-Fc gamma, HER3 ECD as analyte, 25 °C, 1:1 Langmuir model
T2 construct: also called hHER3-ECD; hu-HER3-ECD
Method: After conjugation, anti-HER3 antibodies were injected at 25° C. at a flow rate of 5 μL/min, followed by a dilution series (0 nM to 1000 nM) of human HER3 ECD at 30 μL/min. As running buffer for the binding experiment PBS/0.1% BSA was used. The chip was then regenerated with a 60 s pulse of 10 mM glycine-HCl, pH 2.0 solution.
Calculation of thermodynamic parameters (KD, binding constant to HER3) were calculated using a Langmuir 1:1 binding model.

Binder	pHER3 % inhibition [0.1 µg/ml], MCF7 cells [1] [%]	pHER3 % inhibition [1.0 µg/ml], MCF7 cells [1] [%]	hu_HER3-ECD-ELISA c [2] [µg/mL]	activity (ratio binding to hu_HER3-ECD/IgG) [3]	Kd (human HER3 ECD) [nM]
B1	54	51	–	–	–
B2	–	–	583	0.74	2
B3	–	–	505	0.83	2
